Test results from patent publication US20230125550A1 (ARCELLX, published 2023).
Numbering of substitutions follows the chain as printed. Blank lines part the entries; values can stand above or below the binder they belong to.

Molecular target: HER2 (Homo sapiens (Human), UniProt P04626 23-652)
Assay: phage ELISA, A450 target/A450 IgG1-Fc
In short: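 The ELISA ratio divides target absorbance by IgG1-Fc absorbance and averages this over all screened wells holding a given clone. Phage came from phagemid colonies picked from panning output and were rescued with VCSM13 helper phage in 96-well format. After coating with 1.3 microg/ml goat anti-human IgG1-Fc antibody, wells were loaded with 5 nM recombinant human target or IgG1-Fc, then with 50 microl phage diluted 5× in ELISA blocking buffer, and bound phage were read at 450 nm using HRP-conjugated anti-M13 antibody.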

ELISA_avg: 9.75 ratio
B1: SEQ ID NO 944 (designed binder)
chain: MGSWWEFNIRLHAIDYRLKALGGSEAELAAFEKEIAAFESELQAYKGKGNPEVELLREKAAQIRAQLQAYRHN

ELISA_avg: 5.23 ratio
B2: SEQ ID NO 948 (designed binder)
chain: B1 chain with I9V, H12Q, D15K, K19S, L55D, E58K, K59T, Q62H, A65W

ELISA_avg: 6.73 ratio
B3: SEQ ID NO 949 (designed binder)
chain: B1 chain with I9V, H12S, D15R, K19L, L55D, E58A, K59S, Q66M

ELISA_avg: 6.82 ratio
B4: SEQ ID NO 945 (designed binder)
chain: B1 chain with N8R, I9V, H12E, L55Y, E58M, Q62T, Q66I

ELISA_avg: 10.6 ratio
B5: SEQ ID NO 936 (designed binder)
chain: MGSWVEFWIRLNAIKYRLLALGGSEAELAAFEKEIAAFESELQAYKGKGNPEVEKLRQDAADIRELLQAYRHN

ELISA_avg: 3.08 ratio
B6: SEQ ID NO 950 (designed binder)
chain: B5 chain with V5W, W8N, I9M, N12S, L19Y, K55I, Q58R, D59L, L66R

ELISA_avg: 5.76 ratio
B7: SEQ ID NO 937 (designed binder)
chain: B5 chain with V5T, I9W, N12S, K15V, L19N, K55E, Q58D, D59M, E65S

ELISA_avg: 5.1 ratio
B8: SEQ ID NO 938 (designed binder)
chain: B5 chain with V5W, W8Y, I9L, N12R, K15S, L19Q, K55G, D62E, E65K

ELISA_avg: 5.48 ratio
B9: SEQ ID NO 939 (designed binder)
chain: MGSWWEFHVRLRAIEYRLEALGGSEAELAAFEKEIAAFESELQAYKGKGNPEVEQLRLIAANIRHLLQAYRHN

ELISA_avg: 6.33 ratio
B10: SEQ ID NO 942 (designed binder)
chain: B9 chain with H8Q, R12A, E19K, Q55N, L58Q, I59L, N62H, H65S, L66V

ELISA_avg: 9.61 ratio
B11: SEQ ID NO 943 (designed binder)
chain: B9 chain with H8Q, R12S, E19T, Q55E, L58Q, I59K, N62R, H65S

ELISA_avg: 4.56 ratio
B12: SEQ ID NO 940 (designed binder)
chain: B9 chain with R12K, E19L, Q55D, L58Y, H65Q

ELISA_avg: 3.91 ratio
B13: SEQ ID NO 935 (designed binder)
chain: MGSWIEFWVRLNAILYRLYALGGSEAELAAFEKEIAAFESELQAYKGKGNPEVEALRDSAAEIRRWLQAYRHN

ELISA_avg: 5.35 ratio
B14: SEQ ID NO 946 (designed binder)
chain: MGSWYEFDIRLEAIKYRLSALGGSEAELAAFEKEIAAFESELQAYKGKGNPEVEYLRKKAAVIRSMLQAYRHN

ELISA_avg: 8.04 ratio
B15: SEQ ID NO 947 (designed binder)
chain: B14 chain with Y5W, D8R, K15W, S19H, Y55D, K58I, K59F, V62N, M66K
